{"source": "patent US20240392020A1", "about": "(JIANGSU HENGRUI PHARMACEUTICALS, published 2024)", "target": "T1, HJ-1-L1", "T1 construct": "also called chain 3 of HJ-1", "test": "mass spectrometry of the product of four co-transfected chains of HJ-1; mispairing of heavy chain 2 with light chain 3", "procedure": "0.5 μg of the product was taken for the determination of deglycosylated intact molecular weight. […] Determination of deglycosylated reduced molecular weight: 30 μg of the expressed antibody was taken and lyophilized before adding 10 μL of 8 M Gua-HCl, and the mixture was denatured in a water bath at 70° C. for 10 min. […] Then, 2 μL of 0.025 M DTT was added, and the mixture was reduced for 10 min in a water bath at 70° C. 0.5 μg of the product was taken for the determination of deglycosylated reduced molecular weight. […] Chromatographic column: Poroshell 300SB-C8 5 μm 2.1×75 mm [0420] […] Column temperature: 75° C."}
{"binder": "HJ-1-H2 (other, also called chain 2 of HJ-1) heavy: EVQLVQSGAEVKKPGSSVKVSCKASGYTFSNYLIEWVRQAPGQGLEWIGVIDPGVGDTNYNENFKGRATLTADKSTSTAYIELSSLRSEDTAVYYCAREDNTGTAFDYWGQGTTVTVSSASTKGPSVFPLAPSSKSTSGGTAALGCLVKDYFPEPVTVSWNSGALTSGVHTFPAVLQSSGLYSLSSVVTVPSSSLGTQTYICNVNHKPSNTKVDKKVEPKSCDKTHTCPPCPAPEAAGGPSVFLFPPKPKDTLMISRTPEVTCVVVDVSHEDPEVKFNWYVDGVEVHNAKTKPREEQYNSTYRVVSVLTVLHQDWLNGKEYKCKVSNKALPAPIEKTISKAKGQPREPQVCTLPPSREEMTKNQVSLSCAVKGFYPSDIAVEWESNGQPENNYKTTPPVLDSDGSFFLVSKLTVDKSRWQQGNVFSCSVMHEALHNHYTQKSLSLSPGKDYKDDDDK", "values": [{"measurement": "binding result", "value": "no binding"}]}
